Reference: paper PMC3017645 (Journal of molecular biology, 2010)

T1: Nnf1p-6xHis (budding yeast (S. cerevisiae), UniProt P47149 1-201)
T1 sequence (looked up): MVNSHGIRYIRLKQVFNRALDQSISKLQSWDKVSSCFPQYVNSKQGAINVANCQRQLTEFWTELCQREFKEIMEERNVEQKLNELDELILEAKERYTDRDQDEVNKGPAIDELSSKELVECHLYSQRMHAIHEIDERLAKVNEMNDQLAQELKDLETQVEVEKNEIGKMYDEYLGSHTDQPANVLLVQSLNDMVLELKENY

B1: Dsn1p (natural protein, budding yeast (S. cerevisiae), UniProt P40568 1-576, looked up)
chain: MSLEPTQTVSGTPPMLHQRTHKQVYPLRMETIPILESDSKATLQSNEPTQKDEEETEYFENKQSVSNLSPDLKFKRHKNKHIQGFPTLGERLDNLQDIKKAKRVENFNSSAPIADDNHSGDATANATANATANATANVNASAMPAPYMPYYYYYHPMNAPTPAMIPYPGSPMHSIMPNSSLQPFYSQPTAAGGPDMTTPQNISSSQQLLPAPQLFPYGSFHQQQLQQPHYIQRTRERKKSIGSQRGRRLSMLASQANGGSTIISPHKDIPEEDFYTVVGNASFGKNLQIRQLFNWCLMRSLHKLELKAKNQEEEGELEHLTKKSKLESTKAETDYVDPKRLAMVIIKEFVDDLKKDHIAIDWEDEEKYEDEDEEKILDNTENYDDTELRQLFQENDDDDDDDDEVDYSEIQRSRRKFSERRKALPKEPKKLLPNSKNVENTKNLSILTSKVNAIKNEVKEWAVTLDTSRPDLEWQELTSFSSQPLEPLSDTEEPDLAIADVETKLETKVDELRYQSHILNSHSLALNEITNSKVNKLNIETMRKISSETDDDHSQVINPQQLLKGLSLSFSKKLDL
B2: Mtw1p (natural protein, budding yeast (S. cerevisiae), UniProt P39731 1-289, looked up)
chain: MSAPTMRSTSILTEHLGYPPISLVDDIINAVNEIMYKCTAAMEKYLLSKSKIGEEDYGEEIKSGVAKLESLLENSVDKNFDKLELYVLRNVLRIPEEYLDANVFRLENQKDLVIVDENELKKSEEKLREKVNDVELAFKKNEMLLKRVTKVKRLLFTIRGFKQKLNELLKCKDDVQLQKILESLKPIDDTMTLLTDSLRKLYVDSESTSSTEEVEALLQRLKTNGKQNNKDFRTRYIDIRTNNVLRKLGLLGDKEDEKQSAKPDARTQAGDIVSIDIEEPQLDLLDDVL
B3: Nsl1p (natural protein, budding yeast (S. cerevisiae), UniProt Q12143 1-216, looked up)
chain: MSQGQSKKLDVTVEQLRSIYHQFHDILEEKTDLHLPKKEYDDDAVRREVQIQLQEFLLSAMTMASKSLEVVNADTVGKTVKQLIMESQEKYMEPFDLDLNEQVRKMYQEWEDETVKVAQLRQTGPAKINEVYNNSKDEYLAQLDGRIGVLQARMMQQQSADHDDSTDDADDHINWEHIKQDYVASLNELYQTQQDLPKVRYNVEKVKRLMDFLEED

Molecular target: T1, Nnf1p-6xHis
Assay: co-purification of co-expressed subunits

Binder | stoichiometry N
B1 | 1
B2 | 1
B3 | 1
